# T1: Myoglobin from Horse Heart (Sigma M-9267) (horse), P68082
# T1 chain: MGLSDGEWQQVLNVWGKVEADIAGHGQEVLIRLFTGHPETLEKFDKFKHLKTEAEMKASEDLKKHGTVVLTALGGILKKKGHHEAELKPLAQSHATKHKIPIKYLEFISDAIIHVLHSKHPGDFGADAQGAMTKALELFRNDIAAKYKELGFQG
# B1: Myoglobin from Horse Heart (Sigma M-9267), P68082 1-154 (natural protein)
# chain: T1 chain
# Molecular target: T1, Myoglobin from Horse Heart (Sigma …)
# Test: SDS-PAGE of the methanol precipitate
# Settings: remark: other sources report otherwise
binder,measurement,value
B1,stoichiometry N,3

# — article PMC6806390
